Assay [1] relates to φ×174 or M13 mp18 circular single-stranded DNA. The experiment in a line: Assay of catenation of single-stranded DNA. The assay is classed as biochemical. Conditions: 4 μM protein; 20 μM circular single-stranded DNA; 1 mM MgCl2; 37° C. On the procedure: (§1) A φ×174 or M13 mp18 circular single-stranded DNA (20 μM) was incubated at 37° C. in 20 mM HEPES-NaOH (pH 7.5), 1 mM DTT, 1 mM MgCl2, and 0.1 mg/ml BSA. Thereafter, the sample was subjected to a deproteination treatment with 0.2% SDS and 1.3 mg/ml proteinase K. The obtained product was separated by 0.9% agarose gel electrophoresis, and a DNA band was then stained with SYBR Gold (Invitrogen).

In assay [2] the test system is φ×174 supercoiled double-stranded DNA. The experiment in a line: Activity of Ev1 on supercoiled double-stranded DNA. The format is biochemical. As to conditions: 4 μM Ev1; 10 μM φ×174 supercoiled and nicked double-stranded DNA. On the procedure:
Lanes 1 and 2 indicate the results obtained using a φ×174 circular single-stranded DNA. Lanes 3 and 4 indicate the results obtained using a M13 mp18 circular single-stranded DNA. In addition, lanes 1 and 3 indicate the results of control experiments in which no Ev1 protein was used, and lanes 2 and 4 indicate the results of experiments in which the Ev1 protein was used. […] A φ×174 circular single-stranded DNA (20 μM, lanes 1-3), or φ×174 supercoiled and nicked double-stranded DNA molecules (10 μM, lanes 4-6) were used to examine the influence of Ev1 (4 μM, lanes 2 and 5) and Escherichia coli-derived topoisomerase type I (5 units, lanes 3 and 6). Lanes 1 and 4 indicate the results of control experiments in which no Ev1 protein was used.
as §1

Assay [3] has as its system φ×174 circular single-stranded DNA. The experiment in a line: DNA binding assay (single-stranded DNA). As to conditions: Ev1 0.2-3.2 μM; 40 μM φ×174 circular single-stranded DNA; 37° C., 15 minutes. On the procedure: (§2) Subsequently, the binding ability of the Ev1 protein to DNA was analyzed. The Ev1 protein was mixed with a φ×174 circular single-stranded DNA (40 μM) or a φ×174 supercoiled double-stranded DNA (10 μM) in 10 μl of a reaction solution (20 mM HEPES (pH 7.5), 1 mM DTT, 1 mM MgCl2, and 100 mg/ml BSA), and the mixture was then reacted at 37° C. for 15 minutes. The reaction product was analyzed by 0.8% agarose gel electrophoresis (3 V/cm, 3 hours) using a 1×TAE (40 mM Tris-acetate and 1 mM EDTA) buffer. A band of DNA was stained with ethidium bromide (FIG. 3).

Assay [4] concerns φ×174 supercoiled double-stranded DNA. Nature of the assay: DNA binding assay (double-stranded DNA). As to conditions: Ev1 0.2-3.2 μM; 10 μM φ×174 supercoiled double-stranded DNA; 37° C., 15 minutes. On the procedure: as §2
The target of assay [5] is T1, Rad51B protein / Ev1 protein (Homo sapiens, UniProt O15315+Q9UI08).
T1 construct: in accordance with the protocols used in purification of the entire-length Ev1 protein; 6xHis (N, cleaved yes); made in house; host or cells: Ev1: E. coli BL21 (DE3) codon plus-RP
T1 sequence (Q9UI08 1-418 isoform Q9UI08-2): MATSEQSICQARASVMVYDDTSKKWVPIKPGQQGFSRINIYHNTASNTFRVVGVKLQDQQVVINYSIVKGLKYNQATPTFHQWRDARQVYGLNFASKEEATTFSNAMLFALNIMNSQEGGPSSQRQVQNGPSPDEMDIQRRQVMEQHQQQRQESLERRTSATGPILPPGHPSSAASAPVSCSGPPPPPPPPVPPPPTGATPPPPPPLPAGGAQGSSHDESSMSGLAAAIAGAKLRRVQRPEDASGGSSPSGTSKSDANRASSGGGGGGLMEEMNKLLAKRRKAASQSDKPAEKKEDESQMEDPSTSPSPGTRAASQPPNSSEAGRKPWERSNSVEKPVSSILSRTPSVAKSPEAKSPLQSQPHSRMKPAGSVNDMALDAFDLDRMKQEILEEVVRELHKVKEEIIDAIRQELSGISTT
T1 sequence (O15315 1-350 isoform O15315-1): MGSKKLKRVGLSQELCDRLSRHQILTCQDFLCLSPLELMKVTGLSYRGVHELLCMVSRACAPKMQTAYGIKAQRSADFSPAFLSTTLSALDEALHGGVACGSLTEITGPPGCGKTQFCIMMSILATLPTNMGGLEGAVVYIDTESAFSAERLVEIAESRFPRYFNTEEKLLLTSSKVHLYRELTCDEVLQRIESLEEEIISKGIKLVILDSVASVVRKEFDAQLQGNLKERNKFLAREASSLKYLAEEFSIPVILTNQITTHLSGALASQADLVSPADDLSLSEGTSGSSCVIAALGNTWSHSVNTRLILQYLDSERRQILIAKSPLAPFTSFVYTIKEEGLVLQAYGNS
Nature of the assay: Pull-down assay using Ev1- or Rad51B-bound beads. The format is binding. Conditions: Affi-Gel 10 beads, 10 μg protein, room temperature, 150 minutes. On the procedure:
Thereafter, the obtained mixture was incubated at 4° C. overnight. The Affi-Gel 10-Ev1 beads were washed 3 times with 500 μl of washing buffer 1 (20 mM potassium phosphate (pH 8.5), 30% glycerol, 700 mM NaCl, 5 mM 2-mercaptoethanol, and 0.05% Triton X-100). The Affi-Gel 10-Rad51B beads were washed 3 times with washing buffer 2 (20 mM HEPES-NaOH (pH 7.3), 30% glycerol, 90 mM NaCl, 2 mM 2-mercaptoethanol, 0.1% Triton X-100, 2 mM ammonium sulfate, and 0.1 mM EDTA). Thereafter, a 50% suspension of such Affi-Gel 10-protein was prepared, and it was then preserved at 4° C.
In order to carry out a binding assay, an Affi-Gel 10-protein suspension (30 μl) was incubated with 10 μg of an Ev1 or Rad51B protein at room temperature for 150 minutes. Affi-Gel 10-Ev1 beads were washed 4 times with 100 μl of buffer 1 (20 mM potassium phosphate (pH 8.5), 30% glycerol, 700 mM NaCl, 5 mM 2-mercaptoethanol, and 0.3% Triton X-100). Affi-Gel 10-Rad51B beads were washed 4 times with 100 μl of buffer 2 (20 mM HEPES-NaOH (pH 7.3), 30% glycerol, 90 mM NaCl, 2 mM 2-mercaptoethanol, 2 mM ammonium sulfate, 0.1 mM EDTA, and 0.35% Triton X-100). An SDS-PAGE sample treatment buffer (2×) was directly mixed with the washed beads, and the obtained mixture was then subjected to a heat treatment at 100° C. for 2 minutes. […]

A further assay has as its system Ev1 protein. Nature of the assay: Influence of Rad51B or Rad51 on catenation of single-stranded DNA by the Ev1 protein. The assay is classed as biochemical. Conditions: 4 μM Ev1 mutant plus 4 μM Rad51B protein. On the procedure:
Lanes 1 and 5 indicate the results of control experiments in which neither the Ev1 nor the Rad51B protein was used. Lanes 2 and 6 indicate the results of experiments that were carried out using a 4 μM Rad51B protein in the absence of the Ev1 protein. Lanes 3 and 7 indicate the results of experiments that were carried out using a 4 μM Ev1 protein in the absence of the Rad51B protein. Lanes 4 and 8 indicate the results of experiments that were carried out using a 4 μM Ev1 protein and a 4 μM Rad51B protein. Further, lanes 1-4 indicate the results of experiments that were carried out in the presence of ATP, and lanes 5-8 indicate the results of experiments that were carried out in the absence of ATP. […] Lanes 1 and 5 indicate the results of control experiments in which neither the Ev1 nor the Rad51 protein was used. Lanes 2 and 6 indicate the results of experiments that were carried out using a 4 μM Rad51 protein in the absence of the Ev1 protein. Lanes 3 and 7 indicate the results of experiments that were carried out using a 4 μM Ev1 protein in the absence of the Rad51 protein. Lanes 4 and 8 indicate the results of experiments that were carried out using a 4 μM Ev1 protein and a 4 μM Rad51 protein. Further, lanes 1-4 indicate the results of experiments that were carried out in the presence of ATP, and lanes 5-8 indicate the results of experiments that were carried out in the absence of ATP.
The Rad51B protein was mixed in a concentration of 0.5 to 8 μM with a 4 μM Ev1 protein, and the activity was then measured. Lane 1 indicates the results of a control experiment in which neither the Rad51B protein nor the Ev1 protein was added, and lane 8 indicates the results of a control experiment in which a 8 μM Rad51B protein was added and no Ev1 protein was added. Lanes 2-7 indicate the results of experiments in which the Rad51B protein was added in concentrations of 0 μM, 0.5 μM, 1.0 μM, 2.0 μM, 4.0 μM, and 8.0 μM, respectively, in the presence of 4 μM Ev1.
as §1

B1: Ev1 protein: human Ev1 protein (NCBI accession No. AAF21709), recombinant from E. coli, His tag removed (protein)
chain: T1 sequence (Q9UI08 1-418 isoform Q9UI08-2)
Turning to B1, the “ssDNA catenation activity (multimer formation of circular single-stranded DNA)” value in assay [1] is recorded as “the circular single-stranded DNA formed a multimer”. In assay [2], the “change of supercoiled double-stranded DNA” value is on record as “the supercoiled double-stranded DNA was not particularly changed”. Also, the “binding to single-stranded DNA” value in assay [3] is listed as “efficiently binds”. Besides, the “binding to supercoiled double-stranded DNA” value in assay [4] was “efficiently binds”. In addition, the “binding of Ev1 protein to Rad51B (pull-down)” value in assay [5] was “directly binds to Rad51B”.

B2: Ev1 (1-221) mutant: Ev1 fragment of amino acid residues 1-221, comprises EVH1 and a proline-rich domain (protein, UniProt Q9UI08 1-221, looked up, fragment)
chain: MSEQSICQARASVMVYDDTSKKWVPIKPGQQGFSRINIYHNTASNTFRVVGVKLQDQQVVINYSIVKGLKYNQATPTFHQWRDARQVYGLNFASKEEATTFSNAMLFALNIMNSQEGGPSSQRQVQNGPSPDEMDIQRRQVMEQHQQQRQESLERRTSATGPILPPGHPSSAASAPVSCSGPPPPPPPPVPPPPTGATPPPPPPLPAGGAQGSSHDESSMS
For the molecule B2, the “ssDNA catenation activity (multimer formation of circular single-stranded DNA)” value in assay [1] is listed as “did not exhibit such ssDNA catenation activity”. In the assay on Ev1 protein, the “ssDNA catenation activity with Rad51B protein added” value is reported as “no activity was detected”.

Values taken from patent publication US20100068766A1, “COMPOSITION FOR CLEAVING AND/OR CONNECTING SINGLE STRAND DNA” (WASEDA UNIVERSITY, priority 2007, published 2010).
